Data from patent US20160106830A1.

Legend:
[1] = molecular target: HLA-DR4 (α1*01:01; β1*04:01) (human); assay: ProImmune REVEAL class II MHC-peptide binding assay
[2] = molecular target: HLA-DR7 (α1*01:01; β1*07:01) (human); assay: as above

## VGPLTVNEKRRLKLIMPARFYPNVTKYLPLDKGIK (modifications not checked) [NP113]
[1]
  binding score (% of positive control peptide signal): 33.5%
[2]
  binding score (% of positive control peptide signal): 99.2%

## PEHVVNHYFQTRHYLHTLWKAGILYKRETTRSASF (modifications not checked) [NP151]
[1]
  binding score (% of positive control peptide signal): 74.4%
[2]
  binding score (% of positive control peptide signal): 19.4%
